The target in one test is T1, CD39 (Homo sapiens, UniProt P49961).
T1 construct: cells that endogenously express CD39 at their surface, e.g. regulatory T (TReg) cells, B cells, cancer cells, lymphoma cells (e.g. Ramos cells); endogenous in cells; host or cells: Ramos human lymphoma cells
T1 sequence (P49961 1-510): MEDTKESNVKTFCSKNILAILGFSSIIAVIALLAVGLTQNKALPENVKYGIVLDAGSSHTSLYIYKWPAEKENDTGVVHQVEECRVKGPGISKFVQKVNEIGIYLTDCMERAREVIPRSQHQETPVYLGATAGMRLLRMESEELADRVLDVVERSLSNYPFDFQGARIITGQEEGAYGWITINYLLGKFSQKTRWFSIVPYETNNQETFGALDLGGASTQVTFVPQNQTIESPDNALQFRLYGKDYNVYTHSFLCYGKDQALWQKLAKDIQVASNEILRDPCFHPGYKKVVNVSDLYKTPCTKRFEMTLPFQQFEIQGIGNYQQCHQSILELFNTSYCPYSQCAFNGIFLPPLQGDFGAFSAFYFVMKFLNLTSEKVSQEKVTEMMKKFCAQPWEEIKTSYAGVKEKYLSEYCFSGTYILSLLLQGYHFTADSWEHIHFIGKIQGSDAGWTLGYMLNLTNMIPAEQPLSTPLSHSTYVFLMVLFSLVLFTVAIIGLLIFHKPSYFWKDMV
Nature of the test: Inhibition of CD39 enzymatic activity in Ramos cells, AMP production by Maldi TOF mass spectrometry. The format is cell-based. The settings on record: Ramos cells, ARL at 100 nM, Example 7. As to the method:
The inhibition of CD39 enzymatic activity by antibodies was evaluated by Maldi TOF mass spectrometry (production of AMP). This assay represents an assay that is relatively insensitive to down-modulation of CD39 expression. […] After washes, cells were incubated with anti-CD39 antibodies, isotype control, or ARL and 50 μM ATP for 30 minutes at 4° C. in PBS. AMP generated is quantified in supernatants by Maldi TOP.
The inhibition of CD39 enzymatic activity by antibodies was evaluated by Maldi TOF mass spectrometry (production of AMP). Briefly, 10^5 Ramos human lymphoma cells were incubated overnight at 37° C. with anti-CD39 antibodies or a chemical CD39 inhibitor (ARL 100 μM). After washes, cells were incubated with anti-CD39 antibodies, isotype control, or ARL and 50 μM ATP for 30 minutes at 4° C. in PBS. AMP generated is quantified in supernatants by Maldi TOP. Antibodies were used at 33 nM and ARL at […].

The target in test [1] is T2, Recombinant human CD39-L2 (NTPDase6, ENTPD6) (human, UniProt O75354 61-484, limits assumed).
T2 construct: Coated in ELISA
T2 sequence: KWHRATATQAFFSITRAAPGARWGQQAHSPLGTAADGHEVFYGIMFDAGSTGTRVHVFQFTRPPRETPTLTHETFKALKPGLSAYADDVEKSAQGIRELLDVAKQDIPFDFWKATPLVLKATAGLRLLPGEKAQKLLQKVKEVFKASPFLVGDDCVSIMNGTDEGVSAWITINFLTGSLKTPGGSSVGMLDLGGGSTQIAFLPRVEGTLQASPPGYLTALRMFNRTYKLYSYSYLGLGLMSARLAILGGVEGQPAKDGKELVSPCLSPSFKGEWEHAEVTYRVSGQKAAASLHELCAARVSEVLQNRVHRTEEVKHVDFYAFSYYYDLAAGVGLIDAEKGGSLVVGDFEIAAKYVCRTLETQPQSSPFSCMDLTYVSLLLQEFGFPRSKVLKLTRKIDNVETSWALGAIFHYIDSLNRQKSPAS
Nature of the test: ELISA on coated RechuCD39-L2, OD 450 nm [bottom panel Mouse IgG2a I-391]. As to the method: (§1) Wells were washed in TBS Tween 20, and further saturated 2H at RT in TBS Blocking buffer. Dose range concentration of primary antibody was incubated in TBS blocking buffer for 2h at RT. Wells were washed in TBS Tween 20. […] Optical density was measured on Enspire at OD=450.
(In general: An ELISA detects its analyte on a solid surface through an enzyme-linked reagent.)

In test [2] the target is T3, Recombinant human CD39-L4 (NTPDase5, ENTPD5) (human, UniProt O75356 25-428).
T3 construct: Coated in ELISA
T3 sequence: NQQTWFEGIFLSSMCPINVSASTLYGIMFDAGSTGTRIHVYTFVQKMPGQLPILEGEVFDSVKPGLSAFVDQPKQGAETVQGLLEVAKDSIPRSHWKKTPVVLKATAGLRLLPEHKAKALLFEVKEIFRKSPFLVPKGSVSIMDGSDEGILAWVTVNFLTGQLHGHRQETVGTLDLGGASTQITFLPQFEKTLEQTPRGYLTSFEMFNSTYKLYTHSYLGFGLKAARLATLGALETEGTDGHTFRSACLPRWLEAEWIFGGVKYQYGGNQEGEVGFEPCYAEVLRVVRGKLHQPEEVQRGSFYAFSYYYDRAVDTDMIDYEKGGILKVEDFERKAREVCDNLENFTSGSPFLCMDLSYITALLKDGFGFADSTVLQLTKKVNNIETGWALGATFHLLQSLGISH
Briefly: ELISA on coated RechuCD39-L4, OD 450 nm [bottom panel Mouse IgG2a I-391]. As to the method: as §1

Test [3] deals with T4, Recombinant human CD39-L3 (NTPDase3, ENTPD3) (human, UniProt O75355 44-485, limits assumed).
T4 construct: Coated in ELISA
T4 sequence: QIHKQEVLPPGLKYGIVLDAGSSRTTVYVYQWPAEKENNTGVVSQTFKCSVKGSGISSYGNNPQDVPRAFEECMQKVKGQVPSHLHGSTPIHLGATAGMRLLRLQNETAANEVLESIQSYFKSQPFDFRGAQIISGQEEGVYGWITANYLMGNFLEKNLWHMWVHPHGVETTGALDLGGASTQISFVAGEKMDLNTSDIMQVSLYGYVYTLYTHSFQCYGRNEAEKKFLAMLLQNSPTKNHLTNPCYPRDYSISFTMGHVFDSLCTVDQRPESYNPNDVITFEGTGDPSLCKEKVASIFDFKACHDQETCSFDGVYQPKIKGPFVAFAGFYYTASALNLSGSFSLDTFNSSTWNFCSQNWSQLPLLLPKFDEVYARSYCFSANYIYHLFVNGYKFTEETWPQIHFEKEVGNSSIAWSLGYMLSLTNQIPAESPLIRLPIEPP
Briefly: ELISA on coated RechuCD39-L3, OD 450 nm [bottom panel Mouse IgG2a I-391]. As to the method:
as §1

Test [4] deals with T5, Recombinant human CD39 protein (vascular isoform), soluble (human, UniProt P49961 38-478).
T5 construct: they are written under this molecule; also called Rec-huCD39; huCD39 protein; not shown: M2 tag added in the C-terminal part
T5 sequence: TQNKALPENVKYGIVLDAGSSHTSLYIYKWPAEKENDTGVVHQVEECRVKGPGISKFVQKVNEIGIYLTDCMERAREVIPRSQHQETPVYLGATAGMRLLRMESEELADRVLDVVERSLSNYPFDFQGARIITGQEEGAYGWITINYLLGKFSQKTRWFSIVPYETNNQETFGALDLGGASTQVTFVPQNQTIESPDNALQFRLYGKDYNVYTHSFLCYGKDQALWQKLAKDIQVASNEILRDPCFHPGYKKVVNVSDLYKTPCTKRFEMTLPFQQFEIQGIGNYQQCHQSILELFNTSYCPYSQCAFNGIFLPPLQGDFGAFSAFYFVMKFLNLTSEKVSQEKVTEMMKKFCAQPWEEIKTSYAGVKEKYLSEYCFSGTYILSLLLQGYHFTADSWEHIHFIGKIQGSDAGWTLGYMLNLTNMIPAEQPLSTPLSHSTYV
Nature of the test: ELISA on coated recombinant human CD39 (RechuCD39), HRP secondary antibody, TMB, OD 450 nm [bottom panel Mouse IgG2a I-391]. As to the method:
as §1

The target in test [5] is T2, Recombinant human CD39-L2 (NTPDase6, …). Briefly: ELISA, recombinant isoform coated at 500 ng/ml or 1 µg/ml. As to the method:
as §1

For test [6], the target named is T3, Recombinant human CD39-L4 (NTPDase5, …). The description is as above. As to the method: as §1
Test [7] concerns the target T4, Recombinant human CD39-L3 (NTPDase3, …). The test is described as above. As to the method:
as §1

Test [8] concerns the target T6, Human CD39 (vascular CD39, NTPDase1, ENTPD1) expressed at the cell surface (human, UniProt P49961 1-510).
T6 construct: also called huCD39; HEK-huCD39
T6 sequence: T1 sequence (P49961 1-510)
Briefly: flow cytometry on Ramos cells, antibody at 10 µg/ml, GAM-PE. For orientation: Flow cytometry measures light scatter and fluorescence of single cells or particles in a stream.

The text below walks through data of patent publication US20190153113A1, “CD39 VASCULAR ISOFORM TARGETING AGENTS” (INNATE PHARMA, priority 2015, published 2019).

Consider `CCN(CC)c1ncnc2c1ncn2[C@@H]1O[C@H](COP(=O)(O)OP(=O)(O)C(Br)(Br)P(=O)(O)O)[C@@H](O)[C@H]1O` [ARL, reference compound], for which the “inhibition of AMP generated” value against CD39 is “strong inhibition of AMP generated, but resulted in significantly less CD39 blockade than I-391”.

B1: Antibody I-391 with Fc domain of mouse IgG2a isotype (MOGA) (antibody, V domains shown)
VH: QIQLVQSGPELKKPGETVKISCKASGYTFRNYGMNWVKQAPGKGLKWMGWINTYTGEPTYADDFKGRFAFSLATSASTAYLQISNLKNEDTATYFCARKAYYGSNYYFDYWGQGTTLTVSS
VL: DIVMTQSHKFMSTSVGDRVSITCKASQDVSTAVAWYQQKPGQSPKLLIYSASYRYTGVPDRFTGSGSGTDFTFTISTVQAEDLAVYYCQQHYTTPPYTFGGGTKLEIK
With B1, the binding result in test [1], in test [2] and in test [3] was “no binding (tested: 50 ug/ml)” in each case. In addition, the “EC50 (read off the curve)” value in test [4] was ~0.08 µg/mL.

B2: Antibody I-392, recombinant chimeric human IgG1 with heavy chain N297Q mutation (antibody, V domains shown)
VH: QIQLVQSGPEVKKPRETVKISCKASGYTFTHYGMNWVKQAPGKGLKWMGWINTYTGEPTYADDFKGRFAFSLEASASTAYLQINNLKNEDTATYFCARRRYEGNYVFYYFDYWGQGTTLTVSS
VL: DIQMTQSPASLSASVGETVTITCRASENIYSYFSWYQQKQGKSPQLLVYTAKTLAEGVPSRFSGSGSGTQFSLKINSLQPEDFGSYYCQHHYVTPYTFGGGTKLEIK
As for B2, the binding result in test [5] is “no binding”; in [6], “no binding”; in test [7] it was “no binding”; in test [8], “binds”.

Usually EC50 (read off the curve) stands for the midpoint of the concentration-response curve.
